The target in assay [1] is non-cleavable form of human membrane TNFα on CHO cells (human, UniProt P01375 1-233). The assay is described as follows: cell-based or functional assay.
In assay [2] the target is T1, human IL-23 (human, UniProt Q9NPF7 20-189; P29460 23-328).
T1 sequence (looked up) 1: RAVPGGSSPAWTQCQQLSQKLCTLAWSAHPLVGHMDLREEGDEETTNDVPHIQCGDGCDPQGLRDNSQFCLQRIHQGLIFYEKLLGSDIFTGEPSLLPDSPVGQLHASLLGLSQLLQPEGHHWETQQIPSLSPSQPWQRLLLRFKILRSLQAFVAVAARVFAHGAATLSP
T1 sequence (looked up) 2: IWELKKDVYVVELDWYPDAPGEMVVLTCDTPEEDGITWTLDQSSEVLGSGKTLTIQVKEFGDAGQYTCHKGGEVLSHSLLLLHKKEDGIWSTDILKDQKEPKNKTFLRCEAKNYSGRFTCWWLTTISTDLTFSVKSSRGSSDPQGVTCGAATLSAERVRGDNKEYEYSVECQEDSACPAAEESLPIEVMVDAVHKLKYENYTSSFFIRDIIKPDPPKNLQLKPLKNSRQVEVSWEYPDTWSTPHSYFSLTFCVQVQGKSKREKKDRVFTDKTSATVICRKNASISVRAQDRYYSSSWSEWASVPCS
Kind of assay: cell-based or functional assay.

The target in assay [3] is T2, human TNFα (human, UniProt P01375 77-233). The assay is described as follows: cell-based or functional assay.
Assay [4] addresses human FcγRIIIa (V158) on Jurkat NFAT-FF reporter cells (human, UniProt P08637 17-254). The assay is described as follows: cell-based or functional assay.
The target in a further assay is T3, human FcγRI (CD64) (human, UniProt P12314 16-288, limits assumed).
T3 construct: Soluble analyte in SPR
Kind of assay: SPR, Biacore T200, antibody captured on protein A, FcγR as analyte, 37 °C, N=3. As to the method: (§1) A CM5 chip (Biacore P/N BR-100-50) containing immobilized protein A (generated using standard NHS-EDC amine coupling) on all four flow cells is used to employ a capture methodology. IgG bispecific antibody samples are prepared by dilution of approximately 5 μg/mL into running buffer and approximately 300 RU is captured on the flow cells. Human FcγRI (produced from transient CHO cells and purified using IMAC and size exclusion chromatography) is prepared at final concentrations of 200.00, 100.00, 50.00, 25.00, 12.50, 6.25, 3.12, 1.56, and 0.78 nM by two-fold serial dilution into running buffer. Human FcγRIIa, FcγRIIb and FcγRIIIa (produced from transient CHO cells and purified using IMAC and size exclusion chromatography) are prepared at final concentrations of 10,000.0, 5,000, 2,500, 1,250, 625, 313, 157, 78, and 39 nM by two-fold serial dilution into running buffer.
(§2) Each analysis cycle consists of: (1) capturing antibody samples on flow cells; (2) injection of each human FcγRI, FcγRIIa, FcγRIIb and FcγRIIIa concentration over the flow cells at 40 μL/min for 60 seconds followed by return to buffer flow for 120 seconds to monitor dissociation phase; (3) regeneration of chip surfaces with injection of 10 mM glycine, pH 2.0. for 30 seconds at 50 μL/min over all flow cells; and (4) equilibration of chip surfaces with a 50 μL (60-sec) injection of HBS-EP+ running buffer. Data are processed using standard reference-subtracted method fit to a 1:1 binding model using Biacore T200 […] Evaluation software, version 1.0, to determine the equilibrium dissociation constant (KD) which is calculated from the relationship KD=koff/kₒₙ, and is in molar units.
On the technique in general: In SPR one partner is held on a chip, and binding of the other changes the refractive index at the surface.

The next assay deals with T4, human FcγRIIa (CD32a) (human, UniProt P12318 34-217, limits assumed).
T4 construct: Soluble analyte in SPR
T4 sequence (looked up): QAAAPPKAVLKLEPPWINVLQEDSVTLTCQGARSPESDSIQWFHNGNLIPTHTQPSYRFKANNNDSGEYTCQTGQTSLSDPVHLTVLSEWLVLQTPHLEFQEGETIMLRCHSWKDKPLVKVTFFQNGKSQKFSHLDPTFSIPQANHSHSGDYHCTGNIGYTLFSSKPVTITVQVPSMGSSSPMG
Described as above. As to the method:
as §1, §2

The target in the next assay is T5, human FcγRIIb (CD32b) (human, UniProt P31994 43-217, limits assumed).
T5 construct: Soluble analyte in SPR
T5 sequence (looked up): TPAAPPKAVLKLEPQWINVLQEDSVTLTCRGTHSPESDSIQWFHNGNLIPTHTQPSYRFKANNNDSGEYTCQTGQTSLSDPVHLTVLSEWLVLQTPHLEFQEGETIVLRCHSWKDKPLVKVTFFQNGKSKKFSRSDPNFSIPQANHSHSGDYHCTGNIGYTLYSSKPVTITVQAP
The assay is described as above. As to the method:
as §1, §2

In the next assay the target is T6, human FcγRIIIa (CD16a) (human, UniProt P08637 17-208).
T6 construct: Soluble analyte in SPR
The assay is described as above. As to the method: as §1, §2

Assay [5] deals with T1, human IL-23. Kind of assay: SPR, Biacore T200, antibody captured on protein A, antigen as analyte, 37 °C, 1:1 model, n=3. As to the method: (§3) A CM4 chip (Biacore P/N BR-100534) containing immobilized protein A (generated using standard NHS-EDC amine coupling) on all four flow cells is used to employ a capture methodology. IgG bispecific antibody samples are prepared by dilution of 5 μg/mL into running buffer and approximately 100-150 RU is captured on the flow cells. […] Human TNFα are prepared at final concentrations of 50.0, 25.0, 12.5, 6.25, 3.12, 1.56, 0.78, 0.39, 0.19 and 0 (blank) nM by dilution into running buffer.
(§4) Each analysis cycle consists of (1) capturing antibody samples on flow cells (Fc3); (2) injection of each human IL-23 concentration over the flow cells at 80 μL/min for 200 seconds followed by return to buffer flow for 900 seconds to monitor dissociation phase; (3) injection of each human TNFα concentration over the flow cells at 80 µL/min for 200 seconds followed by return to buffer flow for 900 seconds to monitor dissociation phase; (4) regeneration of chip surfaces with injection of 10 mM glycine, pH 2.0, for 30 seconds at 50 μL/min over all flow cells; and (5) equilibration of chip surfaces with a 50 μL (60-sec) injection of HBS-EP+ running buffer. Data are processed using standard reference-subtracted method fit to a 1:1 binding model using Biacore T200 Evaluation software, version 1.0, to determine the association rate (kₒₙ, M⁻¹s⁻¹ units), dissociation rate (koff, s⁻¹ units), and RUₘₐₓ (RU units). The equilibrium dissociation constant (KD) is calculated from the relationship KD=koff/kₒₙ, and is in molar units.

The target of assay [6] is T2, human TNFα. The assay is described as above. As to the method:
as §3, §4

Assay [7] has as its target T7, human complement component C1q (human, UniProt P02745 23-245; P02746 28-253; P02747 29-245).
T7 construct: Bought protein; also called human C1q
Kind of assay: ELISA, antibody coated on the plate (10 to 0.19 µg/mL), human C1q at 10 µg/mL, anti-C1q-HRP detection. In general terms: An ELISA detects its analyte on a solid surface through an enzyme-linked reagent.
Procedure: Plates are incubated overnight at 4° C. with coating agent (to coat wells with antibody) followed with two hours of blocking (casein, 200 μL) at room temperature and then three washes with wash buffer (1×TBE with 0.05% Tween 20).
100 μL of human C1q (10 μg/mL) (MS Biomedical) in casein blocking reagent is added to each well and plates are incubated for 3 hours at room temperature. Following incubation plates are washed three times followed by addition of 100 μL/well (at 1:800 dilution) of Sheep anti-human C1q-HRP (Abcam #ab46191) in casein blocker. Plates are incubated for 1 hour at RT. Following incubation, plates are washed 6 times with wash buffer, and 100 μL/well of TMB Substrate (Pierce) is added to each well. Plates are incubated for 7 minutes followed by addition of 100 μL of 1.0N HC1 to each well to stop the reaction. Optical density is immediately measured using a colorimetric microplate reader set to 450 nm.

T2 sequence (P01375 77-233 limits assumed): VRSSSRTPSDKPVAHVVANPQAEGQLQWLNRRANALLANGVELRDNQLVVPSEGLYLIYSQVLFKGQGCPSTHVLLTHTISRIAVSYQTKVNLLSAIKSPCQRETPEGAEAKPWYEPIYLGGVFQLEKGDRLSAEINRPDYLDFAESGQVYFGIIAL
Chain of non-cleavable form of human membrane TNFα on CHO cells (P01375 whole entry): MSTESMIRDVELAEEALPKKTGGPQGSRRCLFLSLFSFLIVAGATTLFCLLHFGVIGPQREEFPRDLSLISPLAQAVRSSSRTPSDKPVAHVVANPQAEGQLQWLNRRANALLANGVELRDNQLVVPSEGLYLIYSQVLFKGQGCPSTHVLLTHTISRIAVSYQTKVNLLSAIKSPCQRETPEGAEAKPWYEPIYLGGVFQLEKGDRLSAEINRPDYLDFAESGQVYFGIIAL
T6 sequence (P08637 17-208 limits assumed): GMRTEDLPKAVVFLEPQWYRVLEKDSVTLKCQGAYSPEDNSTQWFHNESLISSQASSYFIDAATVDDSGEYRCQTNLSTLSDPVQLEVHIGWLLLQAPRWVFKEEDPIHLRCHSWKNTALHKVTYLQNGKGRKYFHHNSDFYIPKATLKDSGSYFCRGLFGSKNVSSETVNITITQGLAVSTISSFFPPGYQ
T7 sequence (P02745 23-245 limits assumed, chain 1 of 3): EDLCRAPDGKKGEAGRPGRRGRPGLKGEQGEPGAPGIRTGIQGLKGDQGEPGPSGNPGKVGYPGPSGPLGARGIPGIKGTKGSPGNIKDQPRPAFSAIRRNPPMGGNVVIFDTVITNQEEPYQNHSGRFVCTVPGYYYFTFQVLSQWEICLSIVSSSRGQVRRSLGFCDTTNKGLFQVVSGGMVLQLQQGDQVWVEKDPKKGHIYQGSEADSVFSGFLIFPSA
T7 sequence (P02746 28-253 limits assumed, chain 2 of 3): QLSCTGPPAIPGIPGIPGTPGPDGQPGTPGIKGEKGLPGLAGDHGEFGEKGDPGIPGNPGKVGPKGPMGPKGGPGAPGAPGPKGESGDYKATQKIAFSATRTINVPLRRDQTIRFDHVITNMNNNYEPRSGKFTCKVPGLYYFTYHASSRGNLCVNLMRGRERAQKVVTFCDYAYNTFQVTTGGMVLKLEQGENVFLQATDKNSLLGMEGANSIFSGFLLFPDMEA
T7 sequence (P02747 29-245 limits assumed, chain 3 of 3): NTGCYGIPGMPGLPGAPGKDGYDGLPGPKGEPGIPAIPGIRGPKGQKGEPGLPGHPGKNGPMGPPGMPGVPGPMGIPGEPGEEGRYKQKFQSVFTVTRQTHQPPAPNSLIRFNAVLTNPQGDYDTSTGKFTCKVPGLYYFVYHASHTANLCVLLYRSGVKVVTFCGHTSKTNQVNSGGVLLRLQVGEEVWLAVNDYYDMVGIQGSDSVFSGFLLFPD
Chain of human FcγRIIIa (V158) on Jurkat NFAT-FF reporter cells (P08637 17-254 F176V limits assumed): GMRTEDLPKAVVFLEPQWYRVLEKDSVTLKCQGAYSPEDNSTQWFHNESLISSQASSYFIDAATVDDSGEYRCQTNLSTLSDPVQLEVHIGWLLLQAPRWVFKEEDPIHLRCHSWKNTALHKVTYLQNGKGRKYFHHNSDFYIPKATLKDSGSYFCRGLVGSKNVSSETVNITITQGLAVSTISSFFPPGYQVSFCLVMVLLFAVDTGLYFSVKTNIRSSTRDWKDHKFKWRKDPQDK
T3 sequence (P12314 16-288 limits assumed): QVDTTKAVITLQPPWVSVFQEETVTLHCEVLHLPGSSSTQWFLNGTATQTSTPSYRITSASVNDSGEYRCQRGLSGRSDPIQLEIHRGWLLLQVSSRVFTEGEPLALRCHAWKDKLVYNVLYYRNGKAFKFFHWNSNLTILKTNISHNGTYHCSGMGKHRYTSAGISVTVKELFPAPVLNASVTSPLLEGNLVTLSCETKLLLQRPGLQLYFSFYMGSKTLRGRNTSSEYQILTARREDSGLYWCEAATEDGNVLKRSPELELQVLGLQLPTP

B1: exemplified IgG bispecific antibody (anti-TNFα / anti-IL23p19) (bispecific antibody)
heavy 1: not shown
light 1: not shown
heavy 2: QVQLVQSGAEVKKPGSSVKVSCKASGYPFTRYVMHWVRKAPGQGLEWMGYINPYNDGVNYNEEFKGRVTITADTSTSTAYMELSSLRSEDTAVYYCARNWDTGLWGQGTTVTVSSASTKGPSVFPLAPSSKSTSGGTAALGCLVKDYFPEPVTVSWNSGALTSGVATGPAVLQSSGLYSLSSVVTVPSSSLGTQTYICNVNHKPSNTKVDKKVEPKSCDKTHTCPPCPAPELLGGPSVFLFPPKPKDTLMISRTPEVTCVVVDVSHEDPEVKFNWYVDGVEVHNAKTKPREEQYNSTYRVVSVLTVLHQDWLNGKEYKCKVSNKALPAPIEKTISKAKGQPREPQVSTLPPSREEMTKNQVSLMCLVYGFYPSDIAVEWESNGQPENNYKTTPPVLDSDGSFFLYSVLTVDKSRWQQGNVFSCSVMHEALHNHYTQKSLSLSPG
light 2: RIQMTQSPSSLSASVGDRVTITCKASDHIGKFLTWYQDKPGKAPKLLIYGATSKLTGVPSRFSGSGSGTDFTLTISSLQPEDFATYYCQQYWSTPFTFGGGTKVEIKGQPKAAPSVTLFPPSSEELQANKATLVCYISDFYPGAVTVAWKADSSPVKAGVETTTPSKQSNNKYAAWSYLSLTPEQWKSHRSYSCQVTHEGSTVEKTVAPTEC
modifications: N-terminal glutamine (residue 1) may be converted to pyroglutamic acid; C-terminal lysine (residue 445) may be truncated post-translationally; C-terminal lysine (residue 451) may be truncated post-translationally
notes: Heterodimeric IgG1 of four different chains; also called exemplified bispecific antibody; IgG bispecific antibody of the present invention
A word on the Kd: it is a measure of binding affinity in units of concentration. A high value points to lower affinity. A word on the koff: it is the first-order rate constant of dissociation. The low end stands for slow dissociation, the high end for fast dissociation. By kon is commonly meant the second-order rate constant of association. Low readings indicate slow association, high ones fast association. On to B1, for which, in assay [1], the “IC50, inhibition of killing of L929 cells by CHO cells carrying non-cleavable membrane bound human TNFα (MTT)” value worked out at 3.99 nM. The “relative EC50, human complement-mediated effector function (CDC) on CHO cells carrying non-cleavable human membrane TNFα (T74E construct as internal standard = 1)” value in [1] is 0.74 relative to internal standard. Besides, the “IC50, inhibition of IL-23-induced Stat 3 phosphorylation (luciferase) in Kit225 cells” value with human IL-23 [2] came out at 0.066 pM. For the same molecule, the “IC50, inhibition of soluble human TNFα-induced killing of L929 cells (MTT)” value with human TNFα [3] turned out to be 0.32 nM. Further, the “Relative EC50, induction of FcγRIIIa-mediated effector function (NFAT luciferase in Jurkat cells with CHO cells carrying non-cleavable human membrane TNFα; T74E construct as internal standard = 1)” value in [4] was 0.75 relative to internal standard. The dissociation constant Kd came to 0.0648 nM in the assay with human FcγRI (CD64); 720 nM in the assay with human FcγRIIa (CD32a); 4000 nM with human FcγRIIb (CD32b); 260 nM with human FcγRIIIa (CD16a); 0.245 nM in the assay with human IL-23 [5]; 0.0496 nM in the assay with human TNFα [6]. Also, the koff with human IL-23 [5] stood at 0.000101 s⁻¹; with human TNFα [6] it was 0.000155 s⁻¹. Further, the on-rate constant (kon) with human IL-23 [5] came out at 412000 M⁻¹ s⁻¹; in the assay with human TNFα [6], 3.1e+06 M⁻¹ s⁻¹. Further, the binding result in [7] is “binds”.

The record behind these values is US20190040156A1 (Eli Lilly, published 2019).
